Target: the molecule itself
Test: anti-FLAG immunoblot of cell lysates, reducing (~105 kDa) against non-reducing (~215 kDa) SDS-PAGE
Protocol: Transfection and Immunoblotting. CHO-TRVb cells were maintained in F12-nutrient mixture (Gibco-BRL) supplemented with 5% fetal bovine serum. An amino terminal FLAG-tagged TfR2-α cDNA was subcloned into pcDNA3 (Invitrogen, Carlsbad, Calif.). This plasmid (100 μg) was transfected into CHO-TRVb cells using Lipofectin (Gibco-BRL). For transient expression, cells were harvested 48 h after the transfection. We also isolated a stably expressing clone using G418 (200 μg/ml) selection and a standard limiting dilution method. The protein expression was confirmed by immunoblotting using anti-FLAG (M5) antibody
Tf-binding to the TfR2-α Transfected Cells. To analyze the function of TfR2-α, we stably transfected CHO-TRVb cells, which lack functional TfR, with FLAG-tagged TfR2-α. FIGS. 6A, 6B and 6C show the expression and functional analysis of TfR2-α protein. In FIG. 6A, Tf-binding to the cell surface was examined in neomycin resistant control CHO-TRVb cells (left panels), FLAG-tagged TfR2-α stably transfected cells (middle) and TRVb-1,TfR stably transfected cells (right). The cells were incubated with 5 μg/ml of biotinylated human holo-Tf in MEM a media for 30 min on ice. After washing with PBS, the cells were incubated with streptavidin-PE, and analyzed by flow cytometry. […] After transferring to a PVDF membrane, FLAG-fusion proteins were detected by immunoblotting. […]

B1: FLAG-tagged TfR2-α (transferrin receptor 2, α form), expressed on transfected CHO-TRVb cells (receptor)
chain: MERLWGLFQRAQQLSPRSSQTVYQRVEGPRKGHLEEEEEDGEEGAETLAHFCPMELRGPEPLGSRPRQPNLIPWAAAGRRAAPYLVLTALLIFTGAFLLGYVAFRGSCQACGDSVLVVSEDVNYEPDLDFHQGRLYWSDLQAMFLQFLGEGRLEDTIRQTSLRERVAGSAGMAALTQDIRAALSRQKLDHVWTDTHYVGLQFPDPAHPNTLHWVDEAGKVGEQLPLEDPDVYCPYSAIGNVTGELVYAHYGRPEDLQDLRARGVDPVGRLLLVRVGVISFAQKVTNAQDFGAQGVLIYPEPADFSQDPPKPSLSSQQAVYGHVHLGTGDPYTPGFPSFNQTQFPPVASSGLPSIPAQPISADIASRLLRKLKGPVAPQEWQGSLLGSPYHLGPGPRLRLVVNNHRTSTPINNIFGCIEGRSEPDHYVVIGAQRDAWGPGAAKSAVGTAILLELVRTFSSMVSNGFRPRRSLLFISWDGGDFGSVGSTEWLEGYLSVLHLKAVVYVSLDNAVLGDDKFHAKTSPLLTSLIESVLKQVDSPNHSGQTLYEQVVFTNPSWDAEVIRPLPMDSSAYSFTAFVGVPAVEFSFMEDDQAYPFLHTKEDTYENLHKVLQGRLPAVAQAVAQLAGQLLIRLSHDRLLPLDFGRYGDVVLRHIGNLNEFSGDLKARGLTLQWVYSARGDYIRAAEKLRQEIYSSEERDERLTRMYNVRIMRVEFYFLSQYVSPADSPFRHIFMGRGDHTLGALLDHLRLLRSNSSGTPGATSSTGFQESRFRRQLALLTWTLQGAANALSGDVWNIDNNF
notes: The text describes TfR2-α as residues 1-801 (cytoplasmic 1-80, transmembrane 81-104, extracellular 105-801); Expressed from pcDNA3 in TfR-deficient CHO-TRVb cells, both stably and transiently; A disulfide-linked dimer is inferred from the non-reducing immunoblot; also called TfR2 cells; TfR2-α cells; not shown: amino terminal FLAG tag
B1: binds.
